According to doi:10.1101/2021.07.28.453719:

What was measured:
Assay in all cases: ITC
[1] = target: second bromodomain (BD2) of BRD4 (human)
[2] = target: BRD2-L108AzF mutant (photo-responsive bromodomain analogue) (human)
[3] = target: BRD3-L68AzF mutant (photo-responsive bromodomain analogue) (human) (UniProt Q15059)
[4] = target: BRDT-L61AzF mutant (photo-responsive bromodomain analogue) (human)
[5] = target: first bromodomain (BD1) of BRD2, wild type (human)
[6] = target: first bromodomain (BD1) of BRDT, wild type (human)

Row | Kd [1] | Kd [2] | Kd [3] | Kd [4] | Kd [5] | Kd [6] | Substance
1 | 57 µM | – | – | – | – | – | ILF3 variant peptide AKacGALLKacG (aa 99-106) 15 carrying L102A
2 | 33 µM | – | – | – | – | – | diacetylated ILF3 peptide 10 (AKacGLLLKacG)
3 | – | 93.5 µM | 14.2 µM | 13.5 µM | 27.8 µM | 13.7 µM | tetra-acetylated histone H4 peptide (H4Kac4) 2 (from UniProt P62805 2-22)
